This is an account of results in the supplement of paper PMC11246515.

A short description of this series: total protein half-life in vivo (active degradation + dilution); higher = more stable protein.
Setting [1] is: E. coli NCM3722 delta-clpP delta-lon delta-hslV, growth: N-lim chemostat, doubling time 6 h.
[2] abbreviates: E. coli NCM3722 delta-clpP, growth: N-lim chemostat, doubling time 6 h.
The mark [3] stands for this setting: E. coli NCM3722 delta-hslV, growth: N-lim chemostat, doubling time 6 h.
Where [4] appears, read: E. coli NCM3722 delta-lon, growth: N-lim chemostat, doubling time 6 h.
The mark [5] stands for this setting: E. coli NCM3722 delta-smpB, growth: N-lim chemostat, doubling time 6 h.
The mark [6] stands for this setting: wild type E. coli NCM3722, growth: C-lim chemostat, doubling time 3 h.
Where [7] appears, read: wild type E. coli NCM3722, growth: C-lim chemostat, doubling time 6 h.
Where [8] appears, read: wild type E. coli NCM3722, growth: C-lim chemostat, doubling time 12 h.
Where [9] appears, read: wild type E. coli NCM3722, growth: N-lim chemostat, doubling time 6 h.
Where [10] appears, read: wild type E. coli NCM3722, growth: N-lim chemostat, doubling time 12 h.
Setting [11] is: wild type E. coli NCM3722, growth: P-lim chemostat, doubling time 6 h.
Setting [12] is: wild type E. coli NCM3722, growth: P-lim chemostat, doubling time 12 h.

± gives the standard deviation of the averaged measurements.

As for “MTPFMTEDFLLDTEFARRLYHDYAKDQPIFDYHCHLPPQQIAEDYRFKNLYDIWLKGDHYKWRAMRTNGVAERLCTGDASDREKFDAWAATVPHTIGNPLYHWTHLELRRPFGITGKLLSPSTADEIWNECNELLAQDNFSARGIMQQMNVKMVGTTDDPIDSLEHHAEIAKDGSFTIKVLPSWRPDKAFNIEQATFNDYMAKLGEVSDTDIRRFADLQTALTKRLDHFAAHGCKVSDHALDVVMFAEANEAELDSILARRLAGETLSEHEVAQFKTAVLVFLGAEYARRGWVQQYHIGALRNNNLRQFKLLGPDVGFDSINDRPMAEELSKLLSKQNEENLLPKTILYCLNPRDNEVLGTMIGNFQGEGMPGKMQFGSGWWFNDQKDGMERQMTQLAQLGLLSRFVGMLTDSRSFLSYTRHEYFRRILCQMIGRWVEAGEAPADINLLGEMVKNICFNNARDYFAIELN [P0A8G3]”, the “total protein half-life in vivo” value amounted to 4.91 ± 0.32 h under setting [1]; 4.13 ± 0.56 h under setting [2]; 4.83 ± 1.5 h under setting [3]; 4.12 ± 0.18 h under setting [4]; 3.84 ± 0.12 h under setting [5]; 2.87 ± 0.56 h under setting [6]. The “total protein half-life in vivo” value is, setting by setting: under setting [7], 5.94 ± 0.12 h; under setting [8], 11.9 ± 0.95 h; under setting [9], 4.02 ± 0.48 h; under setting [10], 6.3 ± 0.21 h; under setting [11], 5.26 ± 0.087 h; under setting [12], 9.95 ± 0.88 h.

For the sequence “MEIFFTILIMTLVVSLSGVVTRVMPFQIPLPLMQIAIGALLAWPTFGLHVEFDPELFLVLFIPPLLFADGWKTPTREFLEHGREIFGLALALVVVTVVGIGFLIYWVVPGIPLIPAFALAAVLSPTDAVALSGIVGEGRIPKKIMGILQGEALMNDASGLVSLKFAVAVAMGTMIFTVGGATVEFMKVAIGGILAGFVVSWLYGRSLRFLSRWGGDEPATQIVLLFLLPFASYLIAEHIGVSGILAAVAAGMTITRSGVMRRAPLAMRLRANSTWAMLEFVFNGMVFLLLGLQLPGILETSLMAAEIDPNVEIWMLFTNIILIYAALMLVRFGWLWTMKKFSNRFLKKKPMEFGSWTTREILIASFAGVRGAITLAGVLSIPLLLPDGNVFPARYELVFLAAGVILFSLFVGVVMLPILLQHIEVADHSQQLKEERIARAATAEVAIVAIQKMEERLAADTEENIDNQLLTEVSSRVIGNLRRRADGRNDVESSVQEENLERRFRLAALRSERAELYHLRATREISNETLQKLLHDLDLLEALLIEENQ”, the “total protein half-life in vivo” value reads like this: under setting [1], 6.08 ± 0.45 h; under setting [3], 6.29 ± 0.48 h; under setting [4], 5.55 ± 0.11 h; under setting [5], 5.17 ± 1.3 h; under setting [7], 5.6 ± 0.69 h; under setting [8], 11.9 ± 0.93 h. In addition, the “total protein half-life in vivo” value is, setting by setting: under setting [9], 5.74 ± 0.28 h; under setting [10], 10.9 ± 0.26 h; under setting [11], 6.31 ± 0.26 h; under setting [12], 11.4 ± 0.66 h.

“MKPLHYTASALALGLALMGNAQAVTTIPFWHSMEGELGKEVDSLAQRFNAENPDYKIVPTYKGNYEQNLSAGIAAFRTGNAPAILQVYEVGTATMMASKAIKPVYDVFKEAGIQFDESQFVPTVSGYYSDSKTGHLLSQPFNSSTPVLYYNKDAFKKAGLDPEQPPKTWQDLADYAAKLKASGMKCGYASGWQGWIQLENFSAWNGLPFASKNNGFDGTDAVLEFNKPEQVKHIAMLEEMNKKGDFSYVGRKDESTEKFYNGDCAMTTASSGSLANIREYAKFNYGVGMMPYDADAKDAPQNAIIGGASLWVMQGKDKETYTGVAKFLDFLAKPENAAEWHQKTGYLPITKAAYDLTREQGFYEKNPGADTATRQMLNKPPLPFTKGLRLGNMPQIRVIVDEELESVWTGKKTPQQALDTAVERGNQLLRRFEKSTKS [P0AG80]”: the “total protein half-life in vivo” value is, setting by setting: under setting [1], 4.8 ± 0.06 h; under setting [2], 5.43 ± 0.54 h; under setting [3], 7.41 ± 0.31 h; under setting [5], 6.14 ± 0.2 h; under setting [6], 3.37 ± 0.17 h; under setting [7], 6.26 ± 0.076 h. Besides, the “total protein half-life in vivo” value was determined as 12.9 ± 0.73 h under setting [8]; 6.47 ± 0.47 h under setting [9]; 12.7 ± 0.98 h under setting [10]; 6.14 ± 0.21 h under setting [11]; 12.99 ± 0.1 h under setting [12].

In the case of “MIALIQRVTRASVTVEGEVTGEIGAGLLVLLGVEKDDDEQKANRLCERVLGYRIFSDAEGKMNLNVQQAGGSVLVVSQFTLAADTERGMRPSFSKGASPDRAEALYDYFVERCRQQEMNTQTGRFAADMQVSLVNDGPVTFWLQV [P0A6M4]”, the “total protein half-life in vivo” value amounted to 4.67 ± 0.29 h under setting [1]; 3.81 ± 0.19 h under setting [2]; 3.859 ± 0.026 h under setting [3]; 4.26 ± 0.52 h under setting [4]; 4.06 ± 0.17 h under setting [5]; 5.48 ± 0.15 h under setting [7]. Moreover, the “total protein half-life in vivo” value reads like this: under setting [8], 10 ± 0.87 h; under setting [9], 3.84 ± 0.29 h; under setting [10], 6.66 ± 0.43 h; under setting [11], 5.52 ± 0.24 h; under setting [12], 11 ± 0.22 h.

Turning to “MLKSPLFWKMTSLFGAVLLLLIPIMLIRQVIVERADYRSDVEDAIRQSTSGPQKLVGPLIAIPVTELYTVQEEDKTVERKRSFIHFWLPESLMVDGNQNVEERKIGIYTGQVWHSDLTLKADFDVSRLSELNAPNITLGKPFIVISVGDARGIGVVKAPEVNGTALTIEPGTGLEQGGQGVHIPLPEGDWRKQNLKLNMALNLSGTGDLSVVPGGRNSEMTLTSNWPHPSFLGDFLPAKREVSESGFQAHWQSSWFANNLGERFASGNDTGWENFPAFSVAVTTPADQYQLTDRATKYAILLIALTFMAFFVFETLTAQRLHPMQYLLVGLSLVMFYLLLLALSEHTGFTVAWIIASLIGAIMNGIYLQAVLKGWCNSMLFTLALLLLDGVMWGLLNSADSALLLGTSVLVVALAGMMFVTRNIDWYAFSLPKMKASKEVTTDDELRIWK”, the “total protein half-life in vivo” value under setting [10] stood at 1.65 h, the “total protein half-life in vivo” value under setting [11] is 3.18 ± 0.29 h and the “total protein half-life in vivo” value under setting [12] turned out to be 5.81 ± 0.98 h.

“MPYKTKSDLPESVKHVLPSHAQDIYKEAFNSAWDQYKDKEDRRDDASREETAHKVAWAAVKHEYAKGDDDKWHKKS [P0AE63]”: the “total protein half-life in vivo” value by setting is: under setting [1], 6.81 ± 0.52 h; under setting [2], 4.36 ± 0.59 h; under setting [4], 5.1 ± 0.19 h; under setting [5], 5.01 ± 2.3 h; under setting [7], 5.53 h; under setting [8], 6.09 h. Moreover, the “total protein half-life in vivo” value under setting [9] is 3.3 ± 0.35 h, the “total protein half-life in vivo” value under setting [10] is 6.77 ± 0.7 h, the “total protein half-life in vivo” value under setting [11] is 4.41 h and the “total protein half-life in vivo” value under setting [12] came out at 7.39 ± 1.7 h.

Consider “MRLSDYFPESSISVIHSAKDWQEAIDFSMVSLLDKNYISENYIQAIKDSTINNGPYYILAPGVAMPHARPECGALKTGMSLTLLEQGVYFPGNDEPIKLLIGLSAADADSHIGAIQALSELLCEEEILEQLLTASSEKQLADIISRG”, for which the “total protein half-life in vivo” value came to 3.24 ± 0.38 h under setting [6], 4.03 h under setting [7] and 8.65 h under setting [8].

In the case of “MSNLTYLQGYPEQLLSQVRTLINEQRLGDVLAKRYPGTHDYATDKALWQYTQDLKNQFLRNAPPINKVMYDNKIHVLKNALGLHTAVSRVQGGKLKAKVEIRVATVFRNAPEPFLRMIVVHELAHLKEKEHNKAFYQLCCHMEPQYHQLEFDTRLWLTQLSLGQNKI”, the “total protein half-life in vivo” value came to 5.45 ± 0.29 h under setting [1]; 1.98 ± 0.15 h under setting [2]; 1.16 h under setting [3]; 1.71 h under setting [5]; 3.09 h under setting [6]; 1.64 ± 0.58 h under setting [7]. The “total protein half-life in vivo” value reads like this: under setting [8], 5.13 h; under setting [9], 1.78 h; under setting [10], 1.54 ± 0.21 h; under setting [11], 1.84 ± 0.49 h; under setting [12], 2.74 ± 0.62 h.
